Where “and” joins values, the source holds several entries; their conditions need not be identical. Identical values can stand only once. Like-named read-outs stand apart in the source and are kept apart here.
Tests used:
Assay in all cases: peptide-array ELISA [Con't]
[1] = molecular target: CAPLRK2…2…
[2] = molecular target: VPE2LS2…2…2
[3] = molecular target: …2R
[4] = molecular target: LS2…2R
[5] = molecular target: PE2LS2…2TREQNRIC
[6] = molecular target: LS2…2…
[7] = molecular target: CAPEPGST2…2TSTSPTRC
[8] = molecular target: CDQVETQA2…2…
[9] = molecular target: 2…2RPGW
[10] = molecular target: VPE2LSCGSR2…
[11] = molecular target: LSCGSR2…2T
[12] = molecular target: CLSKQEG2RL2…2RLC
[13] = molecular target: TREQNRI2…2RL
[14] = molecular target: …2GGSGGQA2TREQNRIC
[15] = molecular target: …2SK2SPGQH
[16] = molecular target: …2…
[17] = molecular target: WNWVPE2…
[18] = molecular target: WY2…
[19] = molecular target: LS2…2RPGW
[20] = molecular target: WNWVPE2…2T
[21] = molecular target: VPE2LSCGSR2…2T
[22] = molecular target: VPE2LS2…2…
[23] = molecular target: …2…2R
[24] = molecular target: PE2LS2…2RPGW
[25] = molecular target: WVPE2…2T2
[26] = molecular target: WVPE2…2T
[27] = molecular target: CQI2…2…
[28] = molecular target: E2LS2…2RPG
[29] = molecular target: LWNWVPE2…2T2
[30] = molecular target: NRI2…2RL
[31] = molecular target: 2LS2…2RP
[32] = molecular target: PE2LSCGSR2…2
[33] = molecular target: …2RPG
[34] = molecular target: …2…2RPG
[35] = molecular target: 2…2…
[36] = molecular target: SKQEGCRL2…
[37] = molecular target: KQEGCRL2…
[38] = molecular target: 2LS2…2TREQNRIC
[39] = molecular target: VPE2LS2…2RPG
[40] = molecular target: NWVPE2…2T
[41] = molecular target: EGCRL2…
[42] = molecular target: E2LS2…2TREQNRIC
[43] = molecular target: PE2LS2…2…
[44] = molecular target: 2…
[45] = molecular target: WVPE2…2
[46] = molecular target: …2RPGW
[47] = molecular target: …2…; remark: listed apart in the source
[48] = molecular target: RLCAPLRK2…2APGTFSN
[49] = molecular target: CG2RL2APLRK2…2TSTSPTRC
[50] = molecular target: …2RP
[51] = molecular target: CAPLRK2…2APGTFSN
[52] = molecular target: TSDVV2…
[53] = molecular target: WY2…2…
[54] = molecular target: …2SK2SPGQ

Sequence of WY2… (peptide, as listed by the source): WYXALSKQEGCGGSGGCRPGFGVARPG
Sequence of SKQEGCRL2… (peptide, as listed by the source): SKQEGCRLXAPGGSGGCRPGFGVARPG
Sequence of …2RP (peptide, as listed by the source): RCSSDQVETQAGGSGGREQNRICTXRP
Sequence of WNWVPE2… (peptide, as listed by the source): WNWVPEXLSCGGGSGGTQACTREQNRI
Sequence of EGCRL2… (peptide, as listed by the source): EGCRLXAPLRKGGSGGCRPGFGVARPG
Sequence of 2… (peptide, as listed by the source): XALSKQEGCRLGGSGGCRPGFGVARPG
Sequence of …2RPGW (peptide, as listed by the source): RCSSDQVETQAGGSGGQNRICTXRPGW
Sequence of KQEGCRL2… (peptide, as listed by the source): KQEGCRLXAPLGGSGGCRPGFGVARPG
Sequence of …2R (peptide, as listed by the source): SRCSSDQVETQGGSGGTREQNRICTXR

agonistic TNFR2 antibody MR2-1
Raw luminescence data [1]: 223
Raw luminescence data [2]: 206
Raw luminescence data [3]: 200
Raw luminescence data [4]: 218
Raw luminescence data [5]: 224
Raw luminescence data [6]: 198
Raw luminescence data [7]: 213
Raw luminescence data [8]: 201
Raw luminescence data [9]: 224
Raw luminescence data [10]: 194
Raw luminescence data [11]: 194
Raw luminescence data [12]: 198
Raw luminescence data [13]: 206
Raw luminescence data [14]: 206
Raw luminescence data [15]: 194
Raw luminescence data [16]: 192
Raw luminescence data [17]: 291
Raw luminescence data [18]: 344
Raw luminescence data [19]: 299
Raw luminescence data [20]: 323
Raw luminescence data [21]: 292
Raw luminescence data [22]: 301
Raw luminescence data [23]: 299
Raw luminescence data [24]: 305
Raw luminescence data [25]: 287
Raw luminescence data [26]: 312
Raw luminescence data [27]: 286
Raw luminescence data [28]: 314
Raw luminescence data [29]: 353
Raw luminescence data [30]: 296
Raw luminescence data [31]: 362
Raw luminescence data [32]: 312
Raw luminescence data [33]: 341 and 293
Raw luminescence data [34]: 304
Raw luminescence data [35]: 299
Raw luminescence data [36]: 288
Raw luminescence data [37]: 352
Raw luminescence data [38]: 288
Raw luminescence data [39]: 295
Raw luminescence data [40]: 283
Raw luminescence data [41]: 359
Raw luminescence data [42]: 299
Raw luminescence data [43]: 317
Raw luminescence data [44]: 351
Raw luminescence data [45]: 317
Raw luminescence data [46]: 308
Raw luminescence data [47]: 342 and 337
Raw luminescence data [48]: 320
Raw luminescence data [49]: 287
Raw luminescence data [50]: 324
Raw luminescence data [51]: 293
Raw luminescence data [52]: 323
Raw luminescence data [53]: 287
Raw luminescence data [54]: 156 and 153
